Experimental data as given in the supplement of paper PMC10567573.

B1: ZNF263 (parent)
chain: QRTHTGEKPYKCPECGEIFAHSSN
B2: FAM189A2 (parent)
chain: GSEAAVIPLDLGCTQVTQDGDIPN

Variants of: B1
Experiment: protein stability index of a GFP-peptide fusion (GPS, HEK-293T) (PSI 1-6); higher = more stable
Settings: c terminus: a fixed tail appended
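Also: lentivirally expressed fusions sorted by FACS into six bins by GFP to DsRed ratio, PSI derived from sequencing read proportions per bin multiplied by bin number.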

Protein stability index of substitutions, site by site:
A20: R 2.93; V 3.04; W 3.07; Y 3.49; Q 3.59; T 3.11; S 3.83
N24: P 2.61; Q 3.65; V 2.61; G 3.04; W 2.85; T 3.54; A 3.74; H 3.49; L 2.95; Y 2.96; D 3.88; E 3.15; S 3.16; C 5.06; F 2.74; I 2.65; K 3.99; M 2.75; R 2.39
S23: C 5.55; M 2.81; F 2.81; G 3.23; D 3.5; N 3.34; K 3.79; E 4.67; I 3.24; Q 3.31; Y 2.73; A 3.61; W 2.36; H 4.71; P 2.72; T 3.14; V 2.71; R 2.77; L 2.75
S22: Q 2.81; G 2.92; C 4.15; F 2.8; L 2.39; R 2.38; D 3.64; M 2.49; I 2.52; T 2.92; A 2.88; H 3.87; P 2.88; E 3.62; N 3.38; Y 2.71; K 3.16; V 2.91; W 3.31
H21: L 2.3; E 3.21; F 2.74; K 3.78; Y 2.86; Q 3.43; G 3.22; A 2.95; D 2.5; C 3.5; R 3.16; P 3.5; T 3.15; M 3.19; I 2.05; W 1.95; V 2.35; N 2.86; S 3.43

Variants of: B2
Experiment: as above
Settings: c terminus: a fixed tail appended

Protein stability index of substitutions, site by site:
P8: V 2.54; L 2.65; I 1.87; N 5.16; G 5.18; S 4.46; T 4.42; M 3.41; D 4.97; C 4.03; E 4.85; Q 4.22; F 2.34; R 4.53; W 2; A 4.68; H 4.74; Y 2.83; K 5
A5: G 5.36; P 5.68; F 4.64; E 5.13; S 5.51; L 4.57; D 5.74; K 5.19; I 3.79; V 5.08; R 5.2; C 4.9; M 5.01; W 3.95; H 5.2; T 5.43; N 5.17; Q 5.1; Y 4.15
T14: D 5.25; C 4.97; A 5.29; E 5.51
C13: Y 5.3; S 5.43; P 5.67; F 5.04; E 5.54; A 5.17; N 5.61; H 5.63; V 4.77; L 5.46; R 5.33; M 4.93; G 5.54; Q 5.71; D 5.46; W 4.36; I 5.73; T 5.48; K 5.18
D10: F 3.9; S 5.15; A 5.39; W 4.02; C 4.38; H 5.26; G 5.29; Y 4.39; K 4.85; P 5.26; L 4.2; R 5.07; E 5.18; N 5.14; T 5.34; V 4.48; I 3.7; M 4.02; Q 4.92
I7: W 4.79; K 5.23; S 5.58; V 5.23; F 4.96; Y 5.32; N 5.66; E 5.78; P 5.47; R 4.98; D 5.93; C 5.04; L 4.86; G 5.6; M 5.24; Q 5.24; T 5.67; A 5.57; H 5.23
G12: I 4.96; N 5.09; D 5.61; W 4.62; Y 5.05; S 4.37; Q 5.44; H 4.87; L 4.93; P 5.52; F 4.76; E 4.86; K 5.2; A 5.5; M 4.82; V 5.16; C 4.6; R 4.87; T 5.38
A4: I 4.37; L 5.34; M 4.81; D 5.61; Y 4.79; P 5.53; N 5.58; S 5.24; E 5.57; R 5.4; G 5.29; C 4.74; W 4.53; H 4.7; K 5.49; Q 5.36; T 5.27; F 4.44; V 4.97
G1: C 4.75; T 5.58; I 4.68; E 5.05; P 5.38; Q 5.44; L 5.43; M 5.33; R 5.24; W 4.31; V 5.2; H 5.29; K 5.25; D 5.34; Y 4.26; A 5.53; N 5.46; S 5.22; F 4.84
L9: H 5.47; D 5.48; S 5.7; P 5.46; T 5.5; M 5.6; K 5.46; A 4.91; R 5.22; Q 5.69; Y 5.31; G 5.85; V 5.42; I 5.15; F 4.92; E 5.41; N 5.55; C 5.5; W 4.67
E3: M 4.45; D 5.38; Y 4.18; F 4.14; C 4.83; T 5.11; Q 5.3; G 5.11; K 5.35; N 5.1; V 4.49; H 4.49; W 2.96; I 3.58; P 5.23; S 5.1; R 5.08; L 4.54; A 5.2
L11: A 5.54; Y 5.7; Q 5.33; S 5.54; I 5.11; C 5.25; M 5.31; D 5.77; F 5.39; W 5.38; E 5.02; R 5.72; P 5.45; T 5.44; H 5.75; G 5.6; V 5.65; N 5.24; K 5.6
V6: K 5.71; R 5.57; C 5.43; Q 5.33; F 4.91; S 5.58; E 5.65; Y 5.35; W 4.92; G 5.33; N 5.44; D 5.63; M 5.25; T 5.58; A 5.5; L 5.16; I 5.25; P 5.76; H 5.51
S2: H 5.25; Q 5.36; V 4.85; N 5.52; D 5.51; C 5.49; Y 4.8; W 3.93; I 5.23; A 5.71; R 5.61; K 4.64; F 4.96; M 4.89; T 5.01; E 5.55; G 5.03; L 4.77; P 5.21
